Test results published in PMC5983913 (Science Advances, 2018).
Read-outs that look alike come from different tables or passages of the source. Each block holds one binder with its values, some of them ahead of it.

How the values were obtained:
[1] = target: T1, N-terminal His-tagged LsrK (E. coli, UniProt P77432 1-530); test: enzyme inhibition kinetics
T1 sequence (looked up): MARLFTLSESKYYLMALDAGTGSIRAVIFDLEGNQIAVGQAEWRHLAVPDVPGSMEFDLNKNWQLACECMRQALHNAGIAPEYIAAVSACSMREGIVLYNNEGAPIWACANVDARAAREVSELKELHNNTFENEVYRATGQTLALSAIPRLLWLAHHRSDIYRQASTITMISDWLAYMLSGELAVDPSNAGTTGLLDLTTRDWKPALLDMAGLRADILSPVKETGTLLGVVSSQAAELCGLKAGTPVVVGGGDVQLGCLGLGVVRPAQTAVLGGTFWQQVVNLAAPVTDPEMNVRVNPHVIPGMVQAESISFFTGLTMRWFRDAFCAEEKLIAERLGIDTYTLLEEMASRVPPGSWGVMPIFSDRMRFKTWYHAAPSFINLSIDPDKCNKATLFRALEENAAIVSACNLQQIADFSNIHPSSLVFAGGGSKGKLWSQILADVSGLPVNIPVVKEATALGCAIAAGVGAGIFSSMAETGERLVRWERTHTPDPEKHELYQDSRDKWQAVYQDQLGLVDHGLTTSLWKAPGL

[2] = target: T1, N-terminal His-tagged LsrK; test: enzyme inhibition kinetics; remark: listed apart in the source

Ki [1]: 8.4 ± 0.5 µM
B1: phosphorylated HPr (natural protein)
chain: not shown
modifications: phosphate group at the H15-ND1 atom (phosphohistidine 15); ^15N-labelled

Ki [2]: 1.2 ± 0.2 µM
fold lower inhibition activity than WT HPr [2]: ~5 fold
B2: C-terminal six-His-tagged HPr H15E (natural protein)
chain: not shown

Ki [1]: 0.32 ± 0.07 µM
B3: native HPr protein (expressed alone, intact form) (natural protein)
chain: not shown
